The results in this text go back to publication PMC11307329.

The data set relates to T1, XisF4 (native excisionase) (Pseudomonas aeruginosa PAO1), ORF:74e9b1d3.
T1 sequence: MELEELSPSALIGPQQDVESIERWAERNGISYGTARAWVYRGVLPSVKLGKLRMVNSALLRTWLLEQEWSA
Briefly: EMSA.
Consider “AGCTTTCATGAATCTCTCCGTTGATTATGTATAGGCCTAACGCCTGAACCTCAACAAGCACTTACCATGCCAAATATCAAACCGCGCCACGATCAAGGAAACTGGGTTCCTTTCTCGATGAGAGTCAAACTTAAAACGGACAGGATGTGACATTTTTTGACAGCTGGATTTCCTCGATTTGGCAGCCCCTGTTATCTGCGTTATAAGGCACCTCAATAGCCCTTCTGCGATTCCTTCCCCATG (double strand) [pilA promoter]”, for which the binding result is given as “binds”. The entry for “CGCGCAGACTGTATCGAAGTATTTCCGACGCCTGGCGTTCTGTGATCGATTCGGCTCGGTTGGAGTGCGCTGCCGCACGCTTTACAGCCGGACGGAGCGGGGCACCGGATCTACTGCAAAAGCTGATAGTTGTCTTCCCGGGTGACGGCGTTGCACGGTCCTGCGGCGTGCAACCCGGCCTGGGCGAAATACCGGCGGAGCGGACCAGGCTATCCCGTCGGAGGCGATGTCGCCGGGCTGCTGGCTTTCAAGGTTTCCCTTCGATGACCAGGAGCTACCCATG (double strand) [lasA promoter]” is “binds”. In the case of “CGGTCGCCTTGTTCATGAGAAAAGCCTTTTAAAACAGTGAGTTGCGCAATAATTTCAGCCGTACCTCTTTCGAGGTAGGGGCGCGCATCTAGGCACGGAACGGCCGGTATTTCATTGATTCCTATCAAATTTGCATAGGAACACCTTCCCTAGGCTCTCGCTGAACGCTGTCCGTGCAGAGAGTTTAGCC (double strand) [narL promoter]” it was “binds”. Consider “GCTCATTCCGTCACTATTCGTGGCATTAGCCATACGCAGCTAGAGAAATAATTACCCTGGAGAAATTATTTCCCCAAAGCCACGTCAGGGCAACTATTTCCCCGGAATAAATTTCTATATGAGCACGTCAGCCGATAGAGCAAGACTATTAATCAAGAAAATCGGCCCCAAAAAGGTCAGCCTTCACGGGGGCGATTACGAGAGATGGAAAAGCGTCAGCAAAGGCGCGATTCGCGTGAGCACGGAAGAAATCGACGTCCTAGTAAAAATTTTCCCTAATTACGCATTATGGATTGCAAG (double strand) [xisF4 promoter]”, for which the binding entry is “binds”.
